Reference: the domain aggregation screens of Martell et al. (2025)

Assay: soluble fraction after stress (log2 fold change); higher = more stays soluble; pooled small domains, quantitative proteomics
Conditions: stress: 75 degC
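Further: 20 min heating vs room temperature control held 20 min.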

Sequence	soluble fraction (log2)
HMEAVLTISPGMYSESVSAELVRLGIITNQKEFNSYLVNNGYAERIQTGDFKIKADMSYDEIARIITK	-0.563
HMEAYDTMEDRTTLAPGFAKLDKRERYILHLRFFEGLTQSQIAERVGISQMHVSRLIRRSLEKLREEIGD	-2.67
HMEAYSAEAVRFRIKAMIESETVDDVMSDDKIVERLLADGVDIARRTVAKYREAMNIPSSVKRRRKLKGM	-1.92
HMEDDRMLVWFFRKSIQNGAQSEAEGRPIFEGKDYVHIQQPGERDYIEREAHQGDIGRWPRHWQAYQEGR	0.246
HMEDEAVMQLPLSELKGLSPELLAILNGAGYEKLKDVLDLEREDIERIPGMTPERNEQLVAFLAELTE	0.619
HMEDELFSVARAAFPEYASKIHMNYGSTVQSIARQSGVLTVSETKQLNENQQISYLEYSNGAVVLALA	-0.0187
HMEDELVMERFDINELVKSVVNANELRATQKNLSITYDILDTPLYVWADEYKVEEVVTNYLS	0.00277
HMEDIASESVKRVIRKIIDDEDKKSPLSDQAIVEILAKGEGIVIARRTVAKYREMMGILPSSKRKKH	-1.4
HMEDKIEESLEDNISELFAKTKDKYTLINDLYSKGYTVEELSRFSGLPSGEVRLVISLNSKN	-0.0653
HMEDKPITKEQKQAMFALLREHFSGDEGNAVYTAVLEREGLAPGDKIMSSVYDRLIDGINEAIRQKLEAGA	-0.0206
HMEDNLMIVVQVNGKKRSEIKVSIDASEDQIKQTALAEPNVQKFVEGHTIRKMILVPSKLLNIVV	-1.65
HMEDPKLAQLTEQERKILDLIADGLTNRQIAEKMFLAEKTVKNYVSTILAKMGMSNRSEAAAYVARLEAG	-0.0697
HMEDPPISQEQRQALFKMAHDHLGKDEGNKAILTLIQSHGLNSTTGMKVSTYNTIMEELVSTIQSLAA	-0.0374
HMEDPVAQEARAAFEVGRLLAAATGPVTLAAIRRAIDLPEERLEEILRRLEESGAVRRARDGWLPG	-0.0316
HMEDVDLFTKAMAALPNRYRDILLLRYSHGYTVEEISDILSMKPENVKKTIQRARKKLGEILEAEG	-1.25
HMEEDPVIAAQRFLNIFRQLHIFTAAKRKEFDELLLKQPASVKGMFASLPGGSVLQEYVNNLEQNAG	-0.564
HMEEFIEHTVEKGEFLSAIIVAYNQHLKSKGFKSITTRDILNANPKLKPELIQVGQKIKIPRRKK	-1.71
HMEEFLSFIADILEVDKNTLTLETSQDDVETWDSLMQLRLLGEIEAKYGVMIPMERISTIKKLNDFYQYIK	-1.12
HMEEIIPIRFLRHRVKRRETIFGLTQKYNITEDQLKRYNTRLYSEALERKMVLQIPVFPEVDED	-2.29
HMEEITLQEQINFIKDMLLNKEKFHLTDVITKKSKIYVVSLFLALLELIRLEEINFRQTQNFSDIIISRI	0.0172
HMEELGKVRPELDGNEIAKVLGITPGPVLGRAYTYLLSVRLDEGPIGPDVARERLLAWWAEQPES	-1.2
HMEELIEMNGVVMEILPDSRYRVTLDNGHKLIAYTGGKMKKNHIRILAGDKVTLELSPYDINNGRITFRHI	-1.66
HMEELTDSELNNLYRELFIARSNASDGVGIIEQKTIKGITYRLSNDNNYLIKELGNKEYIYKNGVWEEYT	-0.155
HMEENNIVIYITGAVKKEGIYEIKENSRISDAIEAAGGLLENANIKDINLAYIIEDGVKIYIPTNEEVNK	-0.409
HMEEPFRIEKKGDIYYISGKTVERLVAMTDLDNDSAVKRLQRTLKRMGVEDALREHGINPGDTVVIGNYEF	-0.201

Sequence	soluble fraction (log2)
HMEEQIEVPVQINGKVRSKLTVAPETDEKQIEALALADPKVQQQLEGKRVLKVIVAQKRLVNIVA	-0.161
HMEESTYQWNNFVRDFYASRVSAQYTNKLKVAAILWHHVKNTPQSKIYHDNLVSKYAEEINYFK	-2.8
HMEETEVPPVTGYEQSKASEVLTGKGLIPDIITVADEETAAGYVIRTDPASGEKVPSGTTVKVYVSSGP	0.248
HMEETGFYIKLQDQEVVIFHNDQVTPYEYTGIREEVLPESELEKLREGFFVEDEKELYSVLENLS	0.0782
HMEETLEELGKEYESAFTMYEKLWSYYKKQNYHQVNHKRSERYEILLGFVREYHPEKVEYYRELL	0.378
HMEETLRALAKKISEKVLKSGRSTTLEPMNPYERRIIHSAVSEIEGVSSKSVGEEPYRKVVISSDNP	0.0756
HMEETLRELAVKISKQVIKTGRNSVLEPMNPYERRIIHAVISEIEGVSSKSVGEDPNRKVVIMSTNP	-0.217
HMEEYTVEFVKHKVKRKQTLYTISKLYNVSIDDIIKYNSQIEGFNLSRRMELNIPVKKTLIVKNE	-2.55
HMEFDTEFVLRQAMHAFMQYGYAKTSMQKLKEATHLHPGSIYAAYGNKKGLFLAATEQYQKDR	0.288
HMEFEYFQLRDHLYNLIMHPDKEKLKKDPDYLKLMSMAFSLLEDQNVGKDILEIAIKSIENFK	-0.847
HMEFLDLEIDVDATDGRLLAFLAAKGEVVSQTFNDTIITVRVRMPTGAMGQVHRSALAIRPA	-2.24
HMEFLDQAFLHETMRKVNQDATINLLKKVYEVPQKFIGRKVTVQYDPEDLSRVYVKDLSFPEPVTVYPV	-0.18
HMEFNDLNDDEKAILHIMYNTGEKMTTALAARITNRGRNFASKLLKSLVKKEILEWHGTSKQDRNQYYTLA	-0.0971
HMEFQVKVIVSSLNIRSGPGTSYDTLGTVTKGDIFTIVETNSDSTWGKMQSGGWISIKDAYVKK	-3.92
HMEFTFTLPRGYIDDTGMIHREGTMRLANAADEILPLKDPRVQQNPGYLTIILLARVITKLGSL	0.33
HMEFTKSPLDEIAGVGPARKRALLAAFGTAKAVSQAALADLEKTPGVNAATARLVYAHFHEK	-0.227
HMEFTVFMNSAGGSKLQVVKTVKELTGLGLKEAKAIVDGSPGPVKEGLSKADAEAMLAKLQEAGADVEL	0.013
HMEFYYSDLVGMIVYDTGGNELGKVQAVLNHGAGDLLEIHGVNLKTSILIPFTKEAVPTVDIAARRIVTDP	0.246
HMEGAEDMNRALALAFLRDNSRSTVAQLAEHLGSSKRSAERLVAQLKDEGVLERQGSPRAGLWIVHI	-0.169
HMEGEVVESPLVGVAYLASGPDKPAFVQVGDSVSKGQTLLIIEAMKVMNEVPAPRDGIVTEILV	0.1
HMEGFSAGQFVRASVDNTAFYLKRPKGDAVADKLLRRGASMKVISASGDYLKVELDSGEVGFVPPVMVE	0.0267
HMEGIWAVFYDGKPINLKSSSLVANYPGPKYKKVSFSNPGHAENLAKKLNAQHNTDKFGVYLLKSGDKFS	-0.113
HMEGMSIYVTVNGDMVHLTGKMSYVFVDVFEHIDFDLSKPQGSGIVTKLNGRDAQYMEEIRSGDMIEIYWR	-0.956
HMEGNLVEIFEDAFGRTMSTMDIEYINQFKRTGYDDEMIVSALREAVKSNALSFRYIERVLENWAHS	-0.881
HMEGTEVTTEPPGAQIEFDGKQFGPTPTRVPGLAAGKQFRITLAGYQEAKPKLKNNPKEGEPLSFTLTAI	0.338
